The nature of the data set: label from the status in PepcDB records.
Regarding “MNYVKYHLLALLVTLLVAGSFISSEKLSGVVNPFSLTLLRFVIAAFTLLPFVLFKAQYRKGIIRALPRSLIMSVFFSVFFICMFEALKTTTPLNTGTLYTLVPFLTAIFSIFAFKEKITKKRLVVYLIGSAGTSWIIFGGDIEALLAFSLNGGDALFIGGCISMVCYSISMKFLYRGDEIIVIVFCTLFCGALWMLLALLVFNQPLQWHLLKSDLWFHMGYLALFATLASTFIIQKTTVVLGPSKVMAYIYLNPICVAFLMLFIEGKSIPSIVFPGMIISLIATIVLQFQNRNNANK”, the protein production result is “failed”.

As to “MPAETNEYLSRFVEYMTGERKSRYTIKEYRFLVDQFLSFMNKKPDEITPMDIERYKNFLAVKKR”, the protein production result was “failed”.

Turning to “MPAFSTRHLGAVAAALALTVASPAATASAAPDAPAGLREVMFVGNNWDGTADVIRSTGDFARIGRIDVVPDKAERMAEINADPIKWIYFQAIRNGVGEGHDQLVDDMYSTPDGTSVVVSRPSFADVVSVDLATGDINWRFPVSGYRSDHMAVSPDGTRVAVSASTSNTVHVLDIRTGEQVGSFGTGDKPHENIFTRDGRYIWNMSIGDVNTALDAPWLDWTKGDRRITVVDAKTYRQVKVIDMRQRLDAIGLGDHSDAVRPAVFSPDESKLYFQVSFFNGFFEYDVAGDRITRTKTLPKNPATSEDRTTWVNDSRHHGLSMSPDGARICVAGTMDDYATVVNRDTLEEGPLVPAAKPYWATVSGDGTHCVVSESGADQVTAIDFATGEKSVSVPVGDHPQRVRIGRVAADWTGPSAG”, the protein production result is “failed”.

As for “MPAGCESNPRLVGHPFMTTILAIAVFGAVGCVARYLLAGGVYALAGRAFPWGTLAVNVIGAFLIGLIMEAALRTTLMSQELRLGLTIGFLGGFTTFSTFSYETFKLLEDGEFFSASLNVLASVALCLVGTWAGIMAARQL”, the protein production result is recorded as “failed”.

Regarding “MPAIFTHEGKVEGVPGNYPLTAENLFRIGLALCTLWILDKEIEEPTLSIPETNFVTLALSVGFMNAGGSVNVGKGGDIKLFLQKGEIYVLEFQPLSETDIKKLESILFGRAPIPKKTGEDIGSFKC”, the protein production result is given as “not failed”.

In the case of “MPAKPIDLGPMHFEKKEDAVAYLHKMLHRYDLGDKVSDDDAIILRAALAHHRDAEVKVGCGITYFSVRTADFGTRCFWLNRNDGTTEKFSHKTCIYSTLEHHHHHH”, the protein production entry is “not failed”.

As to “MPAKQPTPKQEPATKAGRCLARSFMKTLIKDCSVSAIVAGSIATTISYAGPLVIIFHAAEAAGLSHQQLSSWVWAVSMGSALLGALLSLRYRVPVVIAWSIPGSALLVTALPQLGLEQAVGAYLVANLVLLLIGISGAFDRIIARLPGSIAAGMQAGILFSFGIEVFRALPVQPLLVLAMFVTYVLMRRVQPRYAVAAVLGVGMLVTVASGTLRSEALVLELASPQWITPQFSLSAVFSLALPMVLVALTGQFMPGMAVLRNAGYPTPASPLISASALIGVLLAPFGCHGLNLAAVTASLCTGHEAHENPQRRYVAAVAGSVLYLLLGIAGATLMSLFAAFPAVLIAALAGLALYGAISEALVRSLAEPAERDAGLFTFLVTASGVAFLGLSAAFWGLLFGLLAHALLRLRQPRAREVLRRTP”, the protein production result is listed as “not failed”.

Turning to “MPALCSTVQTLEKLAKDDVSSLALLGRSVMHDNALTSRILRVANSAIYHKGSTQISTVSRAAIVLGFDAVRNICITAQLLSSLLESKNLAPSVYQRLIKLMAKAFQAAMLTRMMLSDYDDDIQEEAFIACLLFHIGESAFWSIGGEFTETLDSQLTECETSADERSLIRETIGTSFSQLTQSIARHWGLGELLIQAVNYPDDPRPEIRSIFLADKLCDTLSVATPDKNDLEKYINQAANFTGLDETEFTLKMQRCTKATHKLAEAYGAKVLIDYLPDPQRIDKLEPYLPEAELPIFEANLNVQLVKLRELTAFAINKADFNQIMQTVLEGILEGVGVDRCGVLLLSPSRKQLQPRIMLGRDAEEMKRQFIIELGDRKGLFPMAMEHKESLWVDSPCAKKWQEQCRELKVQLPESGFLVAPLLVDNKVIGFYYADRGPSERCFAEVDFQAFIHFSQLANVCFTVSLK”, the protein production entry is listed as “failed”.

“MPALDLIRPSVTAMRVIASVNADFARELKLPPHIRSLGLISADSDDVTYIAADEATKQAMVEVVYGRSLYAGAAHGPSPTAGEVLIMLGGPNPAEVRAGLDAMIAHIENGAAFQWANDAQDTAFLAHVVSRTGSYLSSTAGITLGDPMAYLVAPPLEATYGIDAALKSADVQLATYVPPPSETNYSAAFLTGSQAACKAACNAFTDAVLEIARNPIQRA”: the protein production entry was “failed”.

Take “MPANPRQDLDRYRAKRDFARTPEPQGRSEAPRPEAESLSFVVQKHAASRLHWDFRLEWNGVLLSWAVTRGPSPDPSARRLAVRTEDHPLDYAEFEGTIPKGEYGGGTVMLWDRGTWEPQGDFAEGLRTGQLKIRLAGERMRGRWTLVRMKPRPREKAENWLLIKEHDTHESEQTEELVERHMTSVATGRTMEQIAAGKAPPRRTRQAALPAFRPLQLARLVSAAPEGEDWIHETKFDGYRCLAALAGGRARLYTRSGLDWTAKFGALVEDVEALEAQEALIDGEVIAPGREGGSFSELQARLKSGGQLLFMTFDLLLLDGEDLTGQPLLARKERLKTLIGKGRGAVRFSGHIRGHGPEVHERICAAGLEGIVSKRASAPYAGSRNGDWLKVKCAHRQEFVICGWNASDKPGRPFASLVMGSYEKSRLVYRGSVGSGFGAPLFRELKPLLAERAQSACPFDRTPAEAKGAHWLKPELVAEVSFTELTAEGHIRHGVFAGLRSDKDAREVRLEEPAPETPAPRKSGVRKKGTKTARPDAPSPDEPAPEPARKPRTARGEKKETTMARPDDLRVAGIRISHPDRRIYDRPAVTKREVAEHAEALAPRMLRFLKDRPVSLLRCPEGAAAECFFQKHRTRGMPVAMKTVPVETKSGPEDFITLPDVAALVGATQMGTLEFHIWGSRNRSLQRPDRLVFDLDPDEGLDFAHVRTAAAELRGLLTDLGLPSVPMLSGGKGVHVIVPLKPKAEWESVKLFSRALATHLAQEAPDRYTATMAKAGRKGRIFIDWLRNDRGSTAIAPYSLRARPGAPVATPVDWDELASARSGGDWTIRSIRDRLDRPCPLAEASARPATLGRTVIGRLERLVAGGKP”: the protein production entry is listed as “failed”.

Consider “MPAPLRFSSDKPLLLLIDMQQAVDDPSWGPRNHPQAEQACAGLLQAWRARGLPLIHIRHDSVEPNSTYRPGQPGHAFKPEVEPRPGETVIAKQTNSAFIGTGLEALLRANGWLELVVAGVSTSNSVEATVRMAGNLGFAVCLAEDGCFTFDKTDWHGRRRSADEVHAMSLANLDGEYCRVCGSADILAALGNIAGAA”, for which the protein production result was “not failed”.

For “MPAPRFAQASEVPGLAARRIAADILDGVLQKRRMLDDQLEGPAAHPGLKTLSDRDRALMRRLVATILRRLGTLEGLLAKLLDRGVPTDAPRAKSALLIGAAQILWMDVPDHAAVDLSVRLVQSDRRAAKYAGLVNAVLRRCAREGQPLVEELAAGTPDVPQWLLARWSEHYGAETTRAIAHAISHEPSLDLTVKSDPAHWAARLHGEVLPTGTVRTLLQGSVRMLPGFDEGQWWVQDAAAALPARLFGDIAGKSVADLCAAPGGKTAQLAAAGARVTAIDRSPARVARLRENLARLSLKVETGVADAAEWRGDATAEFDAVLIDAPCASTGTIRRHPDVAWLKQESDIGALAAVQNRLLKKAASLLRPGGTLVYCTCSLEPEEGEQAIAALLDAESSMRRQPIDPAEVAGLAEIVTTDGALRTLPCHLPHSDPRLAGLDGFYAARLVKSL”, the protein production result was “failed”.

On to “MPAPTHGCPLPRFSVIVPAYKVQAYLHECLESVLEQSFPDLELIAVDDCSPDACGAIIDEFAARDTRVRPVHLPQNTGLGRARNAALAEATGDYLIFLDADDSLTPGALQAVADRIKETSEPDVLVYDYARTFWSGETVRNREAGQLTEQGPAPFRLDDRPGLLNVLMVVWNKAYRREFVEREGFTFPPGLYEDTPWTYPALMAAETVATLDRVCVHYRQRRRGNILGTTGRGHFDIFGQYDRVFAYLDGHPELAHWRPVLFRRMVDHVATVFTRRGRLPRGSHAEFLRRARAHYRRHRTPGPPARPRFRLRHVLVRLGSHRTYRLLSLASRTRVRTARSATAVLGRLAGVALQAHYRLQRRLPVRADRAVFASHQGQGHGCNPGALEAAFRTLAPHIRTAWIARPEHHHTVPAATRRVRPGSAAYWTALARSKYLVSNADFDRRLRKRPGQIVIQTHAGTPLKRMGLDLQDRPAAARDTDFAQVLRGADQWDYCLSANRHSTLVWERVFPSGFTTLEYGQPRNDRFQQATSADVTRLRESLGIPHGSVAILYAPTYRDYRRSQRHLLDLERVLRQLGPRYVVLTRAHPSYGAPLTRSDGARLIDVSGHPSVESLCLASDALVTDYSSLMFDYANLDRPIVVYADDWEAYEAARGTYFDLRAFPPGAVARTEEELIDIFATGHWRGSRAAQLRAAFRARFCPYDDGRAAERVVRRIVLGEGAREGERNSEGDGGATGLPPVVPLAGRHPVPSAAAALARPPLATVPHPAGPVPVVDSP”, for which the protein production entry is listed as “failed”.

On to “MPAYVFSKESFLKFLEGHLEDDVVVVVSSDVTDFCKKLSESMVGEKEYCFAEFAFPADIFDADEDEIDEMMKYAIVFVEKEKLSEAGRNAIR”, for which the protein production result was “not failed”.

Take “MPCCSHRRCREDPGTSESQEMEEWALLDISQRKLYKEVMLETFRNLTSVGKSWKDQNIEYEYQNPRRNFRSLIEKKVNEIKDDSHCGETFTQVPDDRLNFQEKKASPEIKSCDSFVCGEVGLGNSSFNMNIRGDIGHKAYEYQEYGPKP”: the protein production entry was “failed”.

“MPDGPDPSSYGPDESPGPDPEEPSSSETAPARHARTTTASRRGHARERMPVSPDESASTFTFDRVVRFLLGAAAVGSVGWMVWYFAGIVLYLIVGGLLAYLLRPPVDYIQGLGVGRVPAILVAFAVFLGVIVVIVTSVVPFITRQVQDLSQLITIDTAAYVANLIEAQVQGVVPLEQGVLEENVRQAAESLMRGDLVEGQQVAETVSSVVSVFTNIVYAVVIVPFVTFFLLKDELRIRRSLLHLVPNRYFEVTLSILAKVELNIGRYFRALLVQGTAIAVIASTLLWIVGLRGAIAIGIFTGLANTIPYFGPFLGFLAGTLVGIAQTGDVSLVPGVALAMALTQLADNVLLQPLIFSRAAQTHPLVILFVVLAGAQLGGILGMLMAIPLTTTLRVIVEQLLWSLRNYRILRAG”: the protein production result is listed as “failed”.

For “MPDKFNMQSPPFNRLTAEQQHQLRSALDVAYFRQRDVLIDAQHPVTHLHILIKGTVEERSPDGKEVFAHYANDDLFDVRAMFEELSKHQYMALEDTLSYLLPKSIFLQLYEQNGEFAAYFDNNLAKRQELIEAAAQQKNIAEFILTKVDRSIYHPPFILSPEQPIHSVTQQLKERGIDAALVELHPSDPRLAHNHAHPYAIVTRTNMLHAVMLEGRPLDTPVGEIATFPVLHVDEGDFLFNAMVMMTRQRIKRVMVCLGNQAVGLLSLIQILSAFSTHSHVLTLAIARAASIDELALAANKQRELVESLMSRGVRTRFVMELIAAVNEQIIEKAFELVVPPALHDQCCLVVLGSEGRGEQILKTDQDNALIIQDGLEWHQCQPIMETLTHTLLQLGYPLCPGKVMVNNPKWVRSQSDWKRTLTDWVKAARPEQVMDIAIFADAHAVAGNRALLAPVKAHLQHLMAGQELILAEFTRPALNFSVPLTLFGNVKSSKQGIDIKQGGIFPIVHGVRALSLEHAIDANNTFDRIEALVKKRVLEQETGDNLSEAFKLFLKLRLAQQLGNQHSTNQLDFKQLDRTERDLLRHSLHVVKKFKQWLGYHYQIRD”, the protein production entry is listed as “failed”.

As for “MPDKPMQYVISRLIDNRTRTRILAPVSALTVKAAREKATGQLQAWREEHTQPSMSASPRFDVFVEQTWKPMIFEHWKPSTKRSVLPALNRRLLAHFGRYPLHMINHKMVQAWFDEISKTRKGAANRNLDTLQSVFKLALRQGHCLTNPCIGIRQNKRRVLNRFLSVAEMQRLSVALDECEAVGGSIAQCADVLRLLLLTGCRLSEITFLKGEYVRGNELHLPDSKTGAKVLYIGQAAVDILSRYHCKANTELFPMKQGASTSLVQSLWLRLRKQIGVEDVRLHDLRHTFASYAVMDGCSIPMVASLLGHKKVTMTLRYTHVGDDSVEQASEVIGAVFKGIFTQPEPPKPLIPRTNETPMPAVKVKQKRLPERKPTAKPKPKAVKKVKQVKPLQKLPTLTKEELRAIQRFRDSELFDRVKIG”, the protein production entry is “failed”.

Source of the values: a protein production outcome set (Wang et al. 2014).
